System: CCR5-targeting megaTAL (CCR5MT) expressed as a CCR5MT-tEGFR fusion (Artificial sequence)
Assay: cell_activity
Conditions: tEGFR-sorted primary human CD4 T cells, donor 1; estimated InDels 58.76%; donor 2 73.54% cleaved; untreated 0%; SEQ:6 assigned to the megaTAL by inference from …

CCR5 gene megaTAL target site
activity (% cleaved DNA (T7E1)): 83

From patent publication US20230167431
